Laboratory results taken from US20260132214A1 (JECHO LABORATORIES, published 2026).

B1: P10 anti-GPC3 scFv-Fc (Fc fusion)
VH: EVQLVQSGAEVKKPGSSVKVSCKASGGTFRSYAISWVRQAPGQGLEWMGGIIPIFGTANYAQKFQGRVTITADELTSTAYMELSSLRSEDTAVYYCASRIGQWPTPFDYWGQGTLVTVSS
VL: QSVLTQPPSVSVAPGKTARITCGGNNIGSKSVHWYQQKPGQAPVLVIYYDSDRPSGIPERFSGSNSGNTATLTISRVEAGDEADYYCQVWDSSSDHPVFGGGTKLTVL
notes: scFv-Fc, human IgG1 constant regions
B2: P17 WT IgG (antibody, V domains shown)
VH: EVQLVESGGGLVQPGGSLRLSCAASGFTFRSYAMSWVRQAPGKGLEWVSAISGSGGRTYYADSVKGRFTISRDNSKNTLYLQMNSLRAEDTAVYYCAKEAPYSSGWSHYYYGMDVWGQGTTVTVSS
VL: QSVLTQPPSVSGAPGQRVTISCTGSSSGYDVHWYQQLPGRAPKLLIYGSNNRPSGVPDRFSGSNSGTSASLAITGLQAEDEADYYCQSYDSSLNAIFGGGTKLTVL
notes: IgG
B3: P17 WT Fab (Fab, V domains shown)
VH: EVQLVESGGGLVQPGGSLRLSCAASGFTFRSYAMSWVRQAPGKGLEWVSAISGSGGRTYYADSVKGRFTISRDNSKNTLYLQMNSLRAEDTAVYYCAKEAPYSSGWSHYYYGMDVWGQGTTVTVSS
VL: QSVLTQPPSVSGAPGQRVTISCTGSSSGYDVHWYQQLPGRAPKLLIYGSNNRPSGVPDRFSGSNSGTSASLAITGLQAEDEADYYCQSYDSSLNAIFGGGTKLTVL
notes: Fab format, lambda light chain (detected with an anti-Lambda antibody)
B4: P17-15D5 Fab (Fab, V domains shown)
VH: EVQLVESGGGLVQPGGSLRLSCAASGFTFANYAMSWVRQAPGKGLEWVSDVSASGVGTYYADSVKGRFTISRDNSKNTLYLQMNSLRAEDTAVYYCAKEVDFKLGWMHYYYGMDVWGQGTTVTVSS
VL: QSVLTQPPSVSGAPGQRVTISCTGSSSGYDVHWYQQLPGRAPKLLIYGSNNRPSGVPDRFSGSNSGTSASLAITGLQAEDEADYYCQSYDSSLNAIFGGGTKLTVL
notes: Fab format
B5: P17-16A11 Fab (Fab, V domains shown)
VH: EVQLVESGGGLVQPGGSLRLSCAASGFTFDRYAMSWVRQAPGKGLEWVSSLSASGSGTYYADSVKGRFTISRDNSKNTLYLQMNSLRAEDTAVYYCAKEYDFSYGWMHYYYGMDVWGQGTTVTVSS
VL: QSVLTQPPSVSGAPGQRVTISCTGSSSGYDVHWYQQLPGRAPKLLIYGSNNRPSGVPDRFSGSNSGTSASLAITGLQAEDEADYYCQSYDSSLNAIFGGGTKLTVL
notes: Fab format
B6: P17-16A11 IgG (antibody, V domains shown)
VH: EVQLVESGGGLVQPGGSLRLSCAASGFTFDRYAMSWVRQAPGKGLEWVSSLSASGSGTYYADSVKGRFTISRDNSKNTLYLQMNSLRAEDTAVYYCAKEYDFSYGWMHYYYGMDVWGQGTTVTVSS
VL: QSVLTQPPSVSGAPGQRVTISCTGSSSGYDVHWYQQLPGRAPKLLIYGSNNRPSGVPDRFSGSNSGTSASLAITGLQAEDEADYYCQSYDSSLNAIFGGGTKLTVL
notes: IgG
B7: P17-16E6 Fab (Fab, V domains shown)
VH: EVQLVESGGGLVQPGGSLRLSCAASGFTFRKYAMSWVRQAPGKGLEWVSSLSASGSATYYADSVKGRFTISRDNSKNTLYLQMNSLRAEDTAVYYCAKEADYSMGWMHYYYGMDVWGQGTTVTVSS
VL: QSVLTQPPSVSGAPGQRVTISCTGSSSGYDVHWYQQLPGRAPKLLIYGSNNRPSGVPDRFSGSNSGTSASLAITGLQAEDEADYYCQSYDSSLNAIFGGGTKLTVL
notes: Fab format
B8: P17-16A1 Fab (Fab, V domains shown)
VH: EVQLVESGGGLVQPGGSLRLSCAASGFTFKRYAMSWVRQAPGKGLEWVSSVSSSGTGTYYADSVKGRFTISRDNSKNTLYLQMNSLRAEDTAVYYCAKEYDYGLGWMHYYYGMDVWGQGTTVTVSS
VL: QSVLTQPPSVSGAPGQRVTISCTGSSSGYDVHWYQQLPGRAPKLLIYGSNNRPSGVPDRFSGSNSGTSASLAITGLQAEDEADYYCQSYDSSLNAIFGGGTKLTVL
notes: Fab format
B9: P17-8E12 Fab (Fab, V domains shown)
VH: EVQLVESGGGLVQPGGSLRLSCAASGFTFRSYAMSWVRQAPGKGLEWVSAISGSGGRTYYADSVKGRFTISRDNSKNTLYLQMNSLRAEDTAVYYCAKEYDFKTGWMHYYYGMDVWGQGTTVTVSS
VL: QSVLTQPPSVSGAPGQRVTISCTGSSSGYDVHWYQQLPGRAPKLLIYGSNNRPSGVPDRFSGSNSGTSASLAITGLQAEDEADYYCQSYDSSLNAIFGGGTKLTVL
notes: Fab format
B10: P17-13F3 Fab (Fab, V domains shown)
VH: EVQLVESGGGLVQPGGSLRLSCAASGFTFEGYAMSWVRQAPGKGLEWVSNVSGSGDGTYYADSVKGRFTISRDNSKNTLYLQMNSLRAEDTAVYYCAKEYDYKTGWMHYYYGMDVWGQGTTVTVSS
VL: QSVLTQPPSVSGAPGQRVTISCTGSSSGYDVHWYQQLPGRAPKLLIYGSNNRPSGVPDRFSGSNSGTSASLAITGLQAEDEADYYCQSYDSSLNAIFGGGTKLTVL
notes: Fab format
B11: P17-13G2 Fab (Fab, V domains shown)
VH: EVQLVESGGGLVQPGGSLRLSCAASGFTFGEYAMSWVRQAPGKGLEWVSGMSGSGDGTYYADSVKGRFTISRDNSKNTLYLQMNSLRAEDTAVYYCAKEMDYQLGWMHYYYGMDVWGQGTTVTVSS
VL: QSVLTQPPSVSGAPGQRVTISCTGSSSGYDVHWYQQLPGRAPKLLIYGSNNRPSGVPDRFSGSNSGTSASLAITGLQAEDEADYYCQSYDSSLNAIFGGGTKLTVL
notes: Fab format
B12: P17-11F4 Fab (Fab, V domains shown)
VH: EVQLVESGGGLVQPGGSLRLSCAASGFTFKDYAMSWVRQAPGKGLEWVSALSGSGGATYYADSVKGRFTISRDNSKNTLYLQMNSLRAEDTAVYYCAKEMDFRYGWMHYYYGMDVWGQGTTVTVSS
VL: QSVLTQPPSVSGAPGQRVTISCTGSSSGYDVHWYQQLPGRAPKLLIYGSNNRPSGVPDRFSGSNSGTSASLAITGLQAEDEADYYCQSYDSSLNAIFGGGTKLTVL
notes: Fab format
B13: P17-16A1 IgG (antibody, V domains shown)
VH: EVQLVESGGGLVQPGGSLRLSCAASGFTFKRYAMSWVRQAPGKGLEWVSSVSSSGTGTYYADSVKGRFTISRDNSKNTLYLQMNSLRAEDTAVYYCAKEYDYGLGWMHYYYGMDVWGQGTTVTVSS
VL: QSVLTQPPSVSGAPGQRVTISCTGSSSGYDVHWYQQLPGRAPKLLIYGSNNRPSGVPDRFSGSNSGTSASLAITGLQAEDEADYYCQSYDSSLNAIFGGGTKLTVL
notes: IgG
B14: P17-16E6 IgG (antibody, V domains shown)
VH: EVQLVESGGGLVQPGGSLRLSCAASGFTFRKYAMSWVRQAPGKGLEWVSSLSASGSATYYADSVKGRFTISRDNSKNTLYLQMNSLRAEDTAVYYCAKEADYSMGWMHYYYGMDVWGQGTTVTVSS
VL: QSVLTQPPSVSGAPGQRVTISCTGSSSGYDVHWYQQLPGRAPKLLIYGSNNRPSGVPDRFSGSNSGTSASLAITGLQAEDEADYYCQSYDSSLNAIFGGGTKLTVL
notes: IgG
B15: P17-15F8 Fab (Fab, V domains shown)
VH: EVQLVESGGGLVQPGGSLRLSCAASGFTFGNYAMSWVRQAPGKGLEWVSGVSGSGDGTYYADSVKGRFTISRDNSKNTLYLQMNSLRAEDTAVYYCAKEYDFGLGWMHYYYGMDVWGQGTTVTVSS
VL: QSVLTQPPSVSGAPGQRVTISCTGSSSGYDVHWYQQLPGRAPKLLIYGSNNRPSGVPDRFSGSNSGTSASLAITGLQAEDEADYYCQSYDSSLNAIFGGGTKLTVL
notes: Fab format
B16: P19 anti-GPC3 scFv-Fc (Fc fusion)
VH: EVQLVESGGGLVKPGGSLRLSCAASGFTFSDYYMSWIRQAPGKGLEWVSYISSSGSTIYYADSVKGRFTISRDNAKNSLYLQMNSLRAEDTAVYYCASVYMDVWGKGTTVTVSS
VL: EIVMTQSPGTLSLSPGERATLSCRASQTVSSSSLAWYQQRPGQAPRLLIYETSSRATGIPDRFSGSGSGTDFTLTISRLEPEDFAIYYCQQKGDSGYTFGQGTKVEIK
notes: as for B1
B17: P20 anti-GPC3 scFv-Fc (Fc fusion)
VH: EVQLVESGGGLVKPGGSLRLSCAASGFTFSDYYMSWIRQAPGKGLEWVSYISSSGSTIYYADSVKGRFTISRDNAKNSLYLQMNSLRAEDTAVYYCASVYMDVWGKGTTVTVSS
VL: SYELTQPPSVSVAPGQTARITCGGNNIGSKSVHWYQQKPGQAPVLVVYDDSDRPSGVPERFSGSNSGNTATLTISRVEAGDEADYYCQVWDNSSDHQVFGGGTKLTVL
notes: scFv-Fc, human IgG1 constant regions; The VH as printed is the same as that of P19
B18: 71 anti-GPC3 scFv-Fc (Fc fusion)
VH: QVQLVESGGGVVQPGRSLRLSCAASGFTFSSYAMHWVRQAPGKGLEWVAVISYDGSNKYYADSVKGRFTISRDNSKNTLYLQMNSLRAEDTAVYYCARGGDGYNAAFDIWGQGTMVTVSS
VL: NFMLTQPPSVSESPGKTVTISCTGSSGSIASNYVQWYQQRPGSAPTTVIYEDNQRPSGVPDRFSGSIDSSSNSASLTISGLKTEDEADYYCQSYDSSKHYVFGTGTKVTVL
notes: as for B1
B19: P3 anti-GPC3 scFv-Fc (Fc fusion)
VH: QVQLQQSGPGLVKPSQTLSITCAISGDSVSSNSAAWNWIRQSPSRGLEWLGRTYYRSKWYNDYAVSVKSRITINPDTSKNQFSLQLNSVTPEDTAVYYCASSYYNGGYFDYWGQGTLVTVSS
VL: EIVLTQSPATLSVSPGGRATLSCRASQSVTTNLAWYQQKPGQAPRLLIYGASTRVTGVPRRFSGSGSGTDFTLTISSLQSEDSAVYYCQQYSGWGGFGGGTKVDIK
notes: as for B1

Tests used:
[1] = target: T1, Glypican 3 Protein, Human, Recombinant (His Tag) (Sino Biological, Cat #10088-H08H) (human, UniProt P51654 25-559); assay: Octet QKe BLI, antibody on AHC probe, antigen in solution, 1:1 fit
T1 construct: Bought recombinant protein; also called Hu-GPC3 (10088-H08H); human GPC3; not shown: His tag

Cy-GPC3 (GP3-C5225) = Cy-GPC3 (GP3-C5225) (Cy (so in the source)); assay: as above
[2] = target: T1, Glypican 3 Protein, Human, Recombinant …; assay: Octet QKe BLI, IgG on AHC probe, GPC3 (Sino Biological) in solution, 1:1 fit
[3] = target: T2, GPC3 expressed on the cell surface of HepG2, Huh7 and Hep3B cells (human, UniProt P51654 25-554); assay: flow cytometry, Fab titrated on Hep3B cells
T2 construct: Endogenous GPC3 of human liver tumour cell lines; also called Glypican 3 protein on the cell surface; endogenously expressed GPC3

[4] = target: T3, Fc-tagged human Glypican 3 protein (Acro Biosystems, cat #GP3-H5258) (human, UniProt P51654 25-559); assay: ELISA, Fab titrated on coated Fc-tagged human GPC3, anti-Lambda HRP detection
T3 construct: Bought; also called recombinant human GPC3; not shown: Fc tag

[5] = target: T1, Glypican 3 Protein, Human, Recombinant …; assay: sandwich-style epitope binning, Octet AHC biosensor, 300 nM human GPC3

T3 sequence (P51654 25-559 limits assumed): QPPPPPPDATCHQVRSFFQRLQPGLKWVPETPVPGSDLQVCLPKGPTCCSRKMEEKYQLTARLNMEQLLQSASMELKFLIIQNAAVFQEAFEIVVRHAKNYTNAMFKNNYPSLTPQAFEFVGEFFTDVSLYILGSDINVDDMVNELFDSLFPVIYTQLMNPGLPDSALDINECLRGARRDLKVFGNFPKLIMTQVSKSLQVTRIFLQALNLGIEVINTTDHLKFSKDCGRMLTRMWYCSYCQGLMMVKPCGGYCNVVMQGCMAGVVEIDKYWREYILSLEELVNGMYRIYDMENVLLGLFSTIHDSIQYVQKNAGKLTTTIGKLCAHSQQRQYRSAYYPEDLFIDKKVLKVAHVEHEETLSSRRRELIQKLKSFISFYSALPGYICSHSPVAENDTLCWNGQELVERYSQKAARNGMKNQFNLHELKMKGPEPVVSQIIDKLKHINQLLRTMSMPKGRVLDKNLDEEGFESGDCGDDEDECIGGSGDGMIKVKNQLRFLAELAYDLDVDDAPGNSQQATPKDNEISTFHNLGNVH
T1 sequence (P51654 25-559 limits assumed): as above
T2 sequence (P51654 25-554 limits assumed): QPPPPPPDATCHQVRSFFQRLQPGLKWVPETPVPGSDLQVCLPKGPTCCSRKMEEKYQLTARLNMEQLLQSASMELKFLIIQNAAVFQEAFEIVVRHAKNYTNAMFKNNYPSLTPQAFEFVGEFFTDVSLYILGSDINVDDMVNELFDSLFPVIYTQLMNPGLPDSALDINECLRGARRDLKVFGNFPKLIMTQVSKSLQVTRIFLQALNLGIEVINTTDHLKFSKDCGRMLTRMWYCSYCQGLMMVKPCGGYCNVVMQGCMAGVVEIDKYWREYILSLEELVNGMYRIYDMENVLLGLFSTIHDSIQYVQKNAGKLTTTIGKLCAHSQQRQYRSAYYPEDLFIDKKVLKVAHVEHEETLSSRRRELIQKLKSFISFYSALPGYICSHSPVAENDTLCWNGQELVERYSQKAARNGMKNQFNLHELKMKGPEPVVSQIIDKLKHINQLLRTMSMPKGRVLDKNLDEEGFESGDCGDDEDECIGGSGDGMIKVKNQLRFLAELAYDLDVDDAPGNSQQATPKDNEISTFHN

Binder	EC50 [3]	EC50 [4]	also measured
B1	–	–	Kd [1]: 2.85 nM; Kd (Cy-GPC3 (GP3-C5225)): 1.28 nM
B2	–	–	Kd [2]: 5990 pM; koff [2]: 0.000833 s⁻¹; kon [2]: 139000 M⁻¹ s⁻¹
B3	21.3 ng/mL	191 ng/mL	–
B4	9.7 ng/mL	9 ng/mL	–
B5	8.3 ng/mL	8.7 ng/mL	–
B6	–	–	Kd [2]: 1.03 pM; koff [2]: 1.87e-07 s⁻¹; kon [2]: 182000 M⁻¹ s⁻¹
B7	8.5 ng/mL	9.6 ng/mL	–
B8	7.4 ng/mL	9.3 ng/mL	–
B9	8.3 ng/mL	9.6 ng/mL	–
B10	14.8 ng/mL	11.7 ng/mL	–
B11	13 ng/mL	8.4 ng/mL	–
B12	9.9 ng/mL	9.5 ng/mL	–
B13	–	–	Kd [2]: 1.17 pM; koff [2]: 2.51e-07 s⁻¹; kon [2]: 215000 M⁻¹ s⁻¹
B14	–	–	Kd [2]: 1.33 pM; koff [2]: 2.76e-07 s⁻¹; kon [2]: 208000 M⁻¹ s⁻¹
B15	10.4 ng/mL	8.9 ng/mL	–
B16	–	–	binding result [5]: binds
B17	–	–	Kd [1]: 100 nM
B18	–	–	binding result [5]: binds
B19	–	–	Kd [1]: 20.1 nM; Kd (Cy-GPC3 (GP3-C5225)): 5.45 nM
